From patent publication US20240116985A1, “STAPLED PEPTIDES AND METHODS THEREOF” (priority 2020, published 2024)
Starred links: 1 amine or outer side, 2 acyl side, 3 side chain; linkers in the order of their positions; H or OH if unused. Positions of bridges follow the written chain, without caps; N, C: chain ends. Non-standard residues stand in square brackets, D forms with d. Primed or numbered codes have the meaning given here. PyrS2″ = (S)-3-amino-1-((pent-4-en-1-yloxy)carbonyl)pyrrolidine-3-carboxylic acid (stapling residue), C=CCCCOC(=O)N1CC[C@@](N[*:1])(C(=O)[*:2])C1; B5(18) = 2,2-bis(4-pentenyl)glycine (2-amino-2-(pent-4-en-1-yl)hept-6-enoic acid), stitching residue, C=CCCCC(CCCC=C)(N[*:1])C(=O)[*:2]; B5(4) = 2,2-bis(4-pentenyl)glycine = 2-amino-2-(pent-4-en-1-yl)hept-6-enoic acid (stitching residue), C=CCCCC(CCCC=C)(N[*:1])C(=O)[*:2]; B5(5) = 2,2-bis(4-pentenyl)glycine, 2-amino-2-(pent-4-en-1-yl)hept-6-enoic acid (stitching residue), C=CCCCC(CCCC=C)(N[*:1])C(=O)[*:2]; B5(8) = 2,2-bis(4-pentenyl)glycine (2-amino-2-(pent-4-en-1-yl)hept-6-enoic acid, stitching residue), C=CCCCC(CCCC=C)(N[*:1])C(=O)[*:2]; TfeGA = (S)-2-amino-3-((carboxymethyl)(2,2,2-trifluoroethyl)amino)propanoic acid, O=C([C@H](CN(CC(=O)[*:3])CC(F)(F)F)N[*:1])[*:2]; PyrS2 = (S)-3-amino-1-((pent-4-en-1-yloxy)carbonyl)pyrrolidine-3-carboxylic acid, C=CCCCOC(=O)N1CC[C@@](N[*:1])(C(=O)[*:2])C1; PyrS3 = (S)-3-amino-1-((hex-5-en-1-yloxy)carbonyl)pyrrolidine-3-carboxylic acid, C=CCCCCOC(=O)N1CC[C@@](N[*:1])(C(=O)[*:2])C1; SeN = (S)-5-(((allyloxy)carbonyl)(methyl)amino)-2-amino-2-methylpentanoic acid, C=CCOC(=O)N(C)CCC[C@](C)(N[*:1])C(=O)[*:2]; B5(13) = 2-amino-2-(pent-4-en-1-yl)hept-6-enoic acid (two alkene chains), C=CCCCC(CCCC=C)(N[*:1])C(=O)[*:2]; B5(3) = 2,2-bis(4-pentenyl)glycine (stitching residue), C=CCCCC(CCCC=C)(N[*:1])C(=O)[*:2]; B5 = 2-amino-2-(pent-4-en-1-yl)hept-6-enoic acid, C=CCCCC(CCCC=C)(N[*:1])C(=O)[*:2]; Ala(1H-tetrazol-5-yl) = N[C@@H](Cc1nnn[nH]1)C(=O)O; Trp(5-Cl) = N[C@@H](Cc1c[nH]c2ccc(Cl)cc12)C(=O)O; Trp(6-Cl) = N[C@@H](Cc1c[nH]c2cc(Cl)ccc12)C(=O)O; Phe(2-Cl) = N[C@@H](Cc1ccccc1Cl)C(=O)O; Phe(3-F) = N[C@@H](Cc1cccc(F)c1)C(=O)O; 2Nal = N[C@@H](Cc1ccc2ccccc2c1)C(=O)O; Phe(2-Me) = Cc1ccccc1C[C@H](N)C(=O)O; Bta = N[C@@H](Cc1csc2ccccc12)C(=O)O; αAllylPro = C=CC[C@@]1(C(=O)O)CCCN1; tBuAla = CC(C)(C)C[C@H](N)C(=O)O; 2Thi = N[C@@H](Cc1cccs1)C(=O)O; 3Thi = N[C@@H](Cc1ccsc1)C(=O)O; Cit = NC(=O)NCCC[C@H](N)C(=O)O; S8 = C=CCCCCCC[C@](C)(N)C(=O)O; hLeu = CC(C)CC[C@H](N)C(=O)O; hSer = N[C@@H](CCO)C(=O)O

Assays:
[1] = biological target: full-length beta-Catenin (Uniprot ID P35222) (Homo sapiens (Human)) (UniProt P35222); assay: fluorescence polarization competition; displaces 5FAM-TCF4(10-53) from full-length beta-catenin
Target sequence in this assay (P35222 2-781 limits assumed): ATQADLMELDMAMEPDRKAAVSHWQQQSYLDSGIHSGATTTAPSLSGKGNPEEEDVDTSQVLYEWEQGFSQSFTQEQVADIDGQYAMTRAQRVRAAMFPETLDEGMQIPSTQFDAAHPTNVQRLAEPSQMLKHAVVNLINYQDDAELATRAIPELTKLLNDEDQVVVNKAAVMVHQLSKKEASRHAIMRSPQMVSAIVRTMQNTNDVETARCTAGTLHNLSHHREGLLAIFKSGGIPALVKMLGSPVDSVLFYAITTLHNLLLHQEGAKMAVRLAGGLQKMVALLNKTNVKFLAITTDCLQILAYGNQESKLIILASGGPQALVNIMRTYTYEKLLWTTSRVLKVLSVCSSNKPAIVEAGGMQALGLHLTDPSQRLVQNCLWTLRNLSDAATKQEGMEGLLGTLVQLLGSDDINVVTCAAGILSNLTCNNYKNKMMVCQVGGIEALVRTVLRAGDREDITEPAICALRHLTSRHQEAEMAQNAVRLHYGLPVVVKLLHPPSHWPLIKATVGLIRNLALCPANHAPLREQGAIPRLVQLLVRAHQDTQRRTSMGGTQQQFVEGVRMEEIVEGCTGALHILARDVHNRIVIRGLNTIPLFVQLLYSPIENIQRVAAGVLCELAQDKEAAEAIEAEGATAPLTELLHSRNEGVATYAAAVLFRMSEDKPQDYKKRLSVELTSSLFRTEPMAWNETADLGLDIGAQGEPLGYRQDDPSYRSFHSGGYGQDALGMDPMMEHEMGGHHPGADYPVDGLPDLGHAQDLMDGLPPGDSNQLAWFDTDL

[2] = biological target: Bcat-Halo (UniProt P35222); assay: NanoBRET Abs IC50, Bcat-Halo/TCF4-Luc in HEK293 cells
[3] = biological target: full-length beta-Catenin (Uniprot ID P35222) (Homo sapiens (Human)) (UniProt P35222); assay: fluorescence polarization competition; 10 nM full-length beta-catenin with 10 nM 5FAM-TCF4(10-53) probe as competitor
Target sequence in this assay (P35222 2-781 limits assumed): as above

[4] = biological target: full-length beta-Catenin (Uniprot ID P35222) (Homo sapiens (Human)) (UniProt P35222); assay: fluorescence polarization competition: peptide titrated against 10 nM full-length beta-catenin + 10 nM 5FAM-TCF4(10-53) probe
Target sequence in this assay (P35222 2-781 limits assumed): as above

[5] = biological target: full-length beta-Catenin (Uniprot ID P35222) (Homo sapiens (Human)) (UniProt P35222); assay: fluorescence polarization competition; peptide displaces 5FAM-TCF4(10-53) from full-length beta-catenin
Target sequence in this assay (P35222 2-781 limits assumed): as above

[6] = biological target: full-length beta-Catenin (Uniprot ID P35222) (Homo sapiens (Human)) (UniProt P35222); assay: fluorescence polarization competition; full-length beta-catenin, competitor 5FAM-TCF4(10-53) probe
Target sequence in this assay (P35222 2-781 limits assumed): as above

[7] = biological target: full-length beta-Catenin (Uniprot ID P35222) (Homo sapiens (Human)) (UniProt P35222); assay: fluorescence polarization competition; peptide titrated against 10 nM full-length beta-catenin + 10 nM 5FAM-TCF4(10-53) probe
Target sequence in this assay (P35222 whole entry, one chain of several): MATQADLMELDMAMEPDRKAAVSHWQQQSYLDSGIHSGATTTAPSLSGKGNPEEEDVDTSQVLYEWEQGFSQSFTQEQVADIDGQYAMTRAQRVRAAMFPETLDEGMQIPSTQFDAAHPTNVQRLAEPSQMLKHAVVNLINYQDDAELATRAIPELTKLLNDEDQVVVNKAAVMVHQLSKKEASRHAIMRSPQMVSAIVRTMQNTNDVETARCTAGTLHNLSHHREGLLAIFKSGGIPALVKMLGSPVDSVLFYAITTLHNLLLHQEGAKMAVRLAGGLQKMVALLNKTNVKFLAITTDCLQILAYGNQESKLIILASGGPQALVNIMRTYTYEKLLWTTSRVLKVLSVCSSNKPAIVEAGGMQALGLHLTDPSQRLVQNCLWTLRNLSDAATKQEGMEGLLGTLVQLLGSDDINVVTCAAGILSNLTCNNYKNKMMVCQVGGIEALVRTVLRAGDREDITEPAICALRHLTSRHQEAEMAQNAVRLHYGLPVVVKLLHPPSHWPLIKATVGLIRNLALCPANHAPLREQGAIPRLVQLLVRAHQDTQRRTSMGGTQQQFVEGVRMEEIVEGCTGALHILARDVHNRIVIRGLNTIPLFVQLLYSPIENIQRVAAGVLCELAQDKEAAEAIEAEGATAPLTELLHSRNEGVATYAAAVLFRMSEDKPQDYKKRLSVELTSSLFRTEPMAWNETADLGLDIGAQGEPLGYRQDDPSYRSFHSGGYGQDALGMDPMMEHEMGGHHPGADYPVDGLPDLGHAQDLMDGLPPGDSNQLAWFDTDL

[8] = biological target: full-length beta-Catenin (Uniprot ID P35222) (Homo sapiens (Human)) (UniProt P35222); assay: fluorescence polarization competition; 10 nM full-length beta-catenin + 10 nM 5FAM-TCF4(10-53) probe, peptide titrated
Target sequence in this assay (P35222 2-781 limits assumed): as the sequence (P35222 2-781 limits assumed) above

[9] = biological target: full-length beta-Catenin (Uniprot ID P35222) (Homo sapiens (Human)) (UniProt P35222); assay: fluorescence polarization competition; full-length beta-catenin; competitor displaced: 5FAM-TCF4 10-53
[10] = biological target: full-length beta-Catenin (Uniprot ID P35222) (Homo sapiens (Human)) (UniProt P35222); assay: fluorescence polarization competition; full-length beta-catenin + 5FAM-TCF4(10-53) probe; peptide titrated

Bcat-Halo, sequence (P35222 whole entry): as the sequence (P35222 whole entry, one chain of several) above

EC50 [4]	IC50 [5]	IC50 [7]	EC50 [8]	Binder	other results
	38 nM			Ac-[αAllylPro]D[tBuAla][B5(13)]DDAAFN[SeN][3Thi][Bta]H-NH2 (staple 1-4, 4-11) [I-774]	EC50 [6]: 38 nM
		60 nM	60 nM	Ac-[αAllylPro]DA[B5(4)]DEAAFQ[S8][2Thi][Bta]Q-NH2 (staple 1-4, 4-11) [I-428]	
		5000 nM	5000 nM	Ac-[αAllylPro][Ala(1H-tetrazol-5-yl)]A[B5(3)]DEAAFQ[S8]F[Bta]Q-NH2 (staple 1-4, 4-11; also: staple isomer composition, earlier eluting HPLC peak) [I-416]	
106 nM				Ac-[αAllylPro]D[tBuAla][B5]DDAAFN[PyrS2][3Thi][Trp(6-Cl)]H-NH2 (staple 1-4, 4-11) [I-798]	IC50 [3]: 106 nM
		109 nM	109 nM	Ac-[αAllylPro]DA[B5(3)]DEAAFQ[S8][3Thi][Bta]Q-NH2 (staple 1-4, 4-11; also: staple isomer composition, earlier eluting HPLC peak) [I-426]	
		1320 nM	1320 nM	Ac-[αAllylPro]DA[B5(4)]DEAA[3Thi]Q[S8][Phe(3-F)][Bta]-NH2 (staple 1-4, 4-11) [I-431]	
14 nM	14 nM			Ac-[αAllylPro]D[tBuAla][B5(4)]DDAAFN[PyrS2][Bta][Bta]H-NH2 (staple 1-4, 4-11) [I-793]	
5 nM	5 nM			Ac-[αAllylPro]D[hLeu][B5(5)]DDAAFN[PyrS2][3Thi][Bta]H-NH2 (staple 1-4, 4-11) [I-788]	
	167 nM			Ac-[αAllylPro]D[tBuAla][B5(13)]DDAAFN[SeN][3Thi][Bta]H-NH2 (staple 1-4, 4-11) [I-773]	EC50 [6]: 167 nM
		146 nM	146 nM	Ac-[αAllylPro]DA[B5(4)]DEAA[3Thi]Q[S8][Phe(3-F)][Bta]Q-NH2 (staple 1-4, 4-11) [I-429]	
20 nM	20 nM			Ac-[αAllylPro]D[tBuAla][B5(4)]DDAAFN[PyrS2][3Thi]WH-NH2 (staple 1-4, 4-11) [I-792]	
		5000 nM	5000 nM	Ac-[αAllylPro][Ala(1H-tetrazol-5-yl)]A[B5(3)]DEAAFQ[S8]F[Bta]Q-NH2 (staple 1-4, 4-11; also: staple isomer composition, later eluting HPLC peak) [I-417]	
5 nM				Ac-[αAllylPro]D[tBuAla][B5(4)]DDAAF[hSer][PyrS2″][3Thi][Bta]H-NH2 (staple 1-4, 4-11) [I-804]	IC50 [3]: 5 nM
		154 nM	154 nM	Ac-[αAllylPro]DA[B5(4)]DEAA[3Thi]Q[S8][Phe(3-F)][Bta]H-NH2 (staple 1-4, 4-11) [I-430]	

The remaining lines, values behind:

Binder	EC50 [4]	IC50 [5]	IC50 [7]	EC50 [8]	other results
Ac-[αAllylPro]D[tBuAla][B5(18)]DDAAFS[PyrS2″][Phe(2-Cl)][Bta]S-NH2 (staple 1-4, 4-11) [I-1019]					EC50 [1]: 5 nM; IC50 [2]: 9.6 µM
Ac-[αAllylPro]D[tBuAla][B5]DDAAFL[PyrS2][3Thi][Bta]H-NH2 (staple 1-4, 4-11) [I-802]	6 nM				IC50 [3]: 6 nM
Ac-[αAllylPro]DI[B5(3)]DEAA[2Thi]Q[S8][Phe(3-F)][Bta]Q-NH2 (staple 1-4, 4-11) [I-412]			92 nM	92 nM	
Ac-[αAllylPro]D[tBuAla][B5(13)]DDAAFN[PyrS2][2Thi][Bta]H-NH2 (staple 1-4, 4-11) [I-779]		5 nM			EC50 [6]: 5 nM
Ac-[αAllylPro]DI[B5(8)]D[TfeGA]AAFN[S8][3Thi][Bta]Q-NH2 (staple 1-4, 4-11) [I-700]					IC50 [9]: 49 nM; EC50 [10]: 49 nM
Ac-[αAllylPro]DA[B5(4)]DEAAFN[S8]F[Bta]-NH2 (staple 1-4, 4-11) [I-432]			145 nM	145 nM	
Ac-[αAllylPro]D[tBuAla][B5(4)]DDAAFN[PyrS2][3Thi][Trp(5-Cl)]H-NH2 (staple 1-4, 4-11) [I-791]	310 nM	310 nM			
Ac-[αAllylPro]D[tBuAla][B5(8)]DEAAFN[PyrS2″][3Thi][Bta]H-NH2 (staple 1-4, 4-11) [I-698]					IC50 [9]: 5 nM; EC50 [10]: 5 nM
Ac-[αAllylPro]D[tBuAla][B5(13)]DDAAFN[PyrS2][Phe(2-Me)][Bta]H-NH2 (staple 1-4, 4-11) [I-782]	6 nM	6 nM			
Ac-[αAllylPro]DI[B5(8)]D[TfeGA]AAFN[S8]F[Bta]Q-NH2 (staple 1-4, 4-11) [I-699]					IC50 [9]: 43 nM; EC50 [10]: 43 nM
Ac-[αAllylPro]DA[B5(4)]DEAAFQ[S8][3Thi][Bta]Q-NH2 (staple 1-4, 4-11; also: staple isomer composition, later-eluting HPLC peak) [I-427]			38.5 nM	38.5 nM	
Ac-[αAllylPro]D[tBuAla][B5(8)]DDAAFN[PyrS2″][3Thi][Bta]H-NH2 (staple 1-4, 4-11) [I-695]					IC50 [9]: 5 nM; EC50 [10]: 5 nM
Ac-[αAllylPro]D[tBuAla][B5(13)]DDAAFN[PyrS3][3Thi][Bta]H-NH2 (staple 1-4, 4-11) [I-776]		5 nM			EC50 [6]: 5 nM
Ac-[αAllylPro]D[tBuAla][B5(5)]DDAAFN[PyrS2][3Thi][2Nal]H-NH2 (staple 1-4, 4-11) [I-790]	24 nM	24 nM			
Ac-[αAllylPro]DI[B5(8)]D[TfeGA]AAFN[S8][3Thi][Bta]H-NH2 (staple 1-4, 4-11) [I-702]					IC50 [9]: 76 nM; EC50 [10]: 76 nM
Ac-[αAllylPro]D[tBuAla][B5(4)]DEAAFN[S8][3Thi][Bta]Q-NH2 (staple 1-4, 4-11; not fully specified) [I-682]					IC50 [9]: 41 nM
Ac-[αAllylPro]D[tBuAla][B5(4)]DDAAF[Cit][PyrS2″][3Thi][Bta]Q-NH2 (staple 1-4, 4-11) [I-805]	5 nM				IC50 [3]: 5 nM
Ac-[αAllylPro]DA[B5(3)]D[Ala(1H-tetrazol-5-yl)]AAFQ[S8]F[Bta]Q-NH2 (staple 1-4, 4-11) [I-413]			90 nM	90 nM	
Ac-[αAllylPro]D[tBuAla][B5(4)]DDAAF[Cit][PyrS2″][3Thi][Bta]H-NH2 (staple 1-4, 4-11) [I-806]	5 nM				IC50 [3]: 5 nM
